These results are taken from patent US20120094909A1 (Bristol-Myers Squibb, published 2012).

Experiment [1] has as its target T1, rhesus serum albumin (rhesus, UniProt Q28522 17-600).
T1 construct: also called RhSA
The experiment can be described thus: SPR (Biacore), albumin captured on chip, SABA in flow; n = 4. As to the method: (§1) The kinetics of selected SABA clones purified from HTPP and/or midscaled material described in Examples 5A and 5B were determined by capturing the respective serum albumin (HSA/RhSA/MuSA) on the surface of a Biasensor CMS chip and flowing a concentration series of SABAs over both the reference flow cell and the captured albumins. In addition, binding to albumin was carried out under various pH conditions ranging from pH 5.5 to pH 7.4.

The target of experiment [2] is T2, human serum albumin (human, UniProt P02768 25-609).
T2 construct: also called HSA
The experiment can be described thus: SPR (Biacore), albumin captured on chip, SABA in flow; n = 9. How it is done: as §1

Experiment [3] deals with T1, rhesus serum albumin. The experiment can be described thus: SPR (Biacore), albumin captured on chip, SABA in flow. As to the method:
as §1

Experiment [4] addresses T2, human serum albumin. The experiment is described as above. How it is done: as §1
Experiment [5] has as its target T3, human PCSK9 (proprotein convertase subtilisin kexin type 9) (human, UniProt Q8NBP7 31-692). The experiment can be described thus: cell-based or functional assay.
Experiment [6] deals with T3, human PCSK9 (proprotein convertase …). The experiment can be described thus: BLI (Octet Red), 37 C. How it is done: Tips were then immersed into a buffer-only well for observation of Adnectin dissociation. Experiments were performed in a temperature controlled environment at either 25 or 37° C., and the oscillation speed was set at 1500 rpm.
Binding interaction analysis was performed using proprietary software from Fortebio (Fortebio Data Analysis Software version 6.3.0.36). Global fits were performed for all samples, using a 1:1 binding model. The nature of these global fits constrained all values of concentration to a single pair of association and dissociation rates that were themselves constrained to each other. Affinities (KD), association and dissociation rates were averaged over the various loading levels used in the analysis.
In general terms: In BLI a coated tip is dipped into the sample, and binding shifts an interference pattern.

Experiment [7] has the same target. The experiment can be described thus: cell-based or functional assay. This is another data set of the same source.
For experiment [8] the target is unchanged. The experiment can be described thus: SPR (ProteOn), PCSK9 immobilized directly, 25 C. As to the method: (§2) The binding characteristics were characterized by Surface Plasmon Resonance (SPR). […] This allowed kinetic determination in the absence of regeneration. […] Evaluation of the kinetic parameters was performed using the Langmuir interaction model and constant parameter fitting with the ProteOn Manager software.

Experiment [9] shares this target. The experiment can be described thus: PCSK9:EGFA FRET, competitor EGFA peptide.
The target is the same in experiment [10]. The experiment can be described thus: SPR (ProteOn), 25 C.
For experiment [11] the target is unchanged. The experiment can be described thus: ITC, 37 C. Background: Isothermal titration calorimetry measures the heat released or taken up as one component is titrated into another.
Experiment [12] concerns the target T4, human PCSK9 (proprotein convertase subtilisin kexin type 9) (human, UniProt Q8NBP7 31-692).
T4 construct: Directly immobilized (SPR ProteOn), biotinylated (BLI), or in solution, depending on the assay; also called hPCSK9
The experiment can be described thus: FRET direct binding, anti-his6 antibody. The text has this: (§3) Table 11 summarizes the overall data from these three FRET assays.

Experiment [13] concerns the target T5, cynomolgus monkey PCSK9 (cynomolgus monkey, UniProt A0A7N9D9N8 150-747).
T5 construct: also called cyno PCSK9; cPCSK9
The experiment can be described thus: FRET, competitor EGFA peptide.
Source text: as §3

Experiment [14] addresses T4, human PCSK9 (proprotein convertase …). The experiment can be described thus: FRET, competitor EGFA peptide.
Source text: as §3

The target is the same in experiment [15]. The experiment can be described thus: cell-based or functional assay. This is another data set of the same source.
Experiment [16] deals with T5, cynomolgus monkey PCSK9. The experiment can be described thus: SPR ProteOn, PCSK9 immobilized, 25 C. How it is done: as §2
Experiment [17] concerns the target T4, human PCSK9 (proprotein convertase …). The experiment can be described thus: SPR ProteOn, PCSK9 immobilized, 25 C. How it is done:
as §2

Experiment [18] deals with T5, cynomolgus monkey PCSK9. The experiment can be described thus: SPR ProteOn, 25 C. As to the method:
as §2

The target of experiment [19] is T4, human PCSK9 (proprotein convertase …). The experiment can be described thus: SPR ProteOn, 25 C. How it is done: as §2
The target is the same in experiment [20]. The experiment can be described thus: FRET, competitor ATI000972.
Source text: as §3

The target is the same in experiment [21]. The experiment can be described thus: SPR Biacore, ATI-1081 captured on anti-His antibody, hPCSK9 in flow, 25 C. How it is done: The binding characteristics were characterized by Surface Plasmon Resonance (SPR). […] […] Duplicate experiments for PRD460 were performed on different days. Kinetic determinations were performed at 25° C. Evaluation of the kinetic parameters was performed using the 1:1 Binding algorithm on the BIACORE® Evaluation software.

Experiment [22] shares this target. The experiment can be described thus: ITC, 37 C. As to the method:
Solution phase binding was measured in 25 mM HEPES, pH 7.41, 150 mM NaCl at 37° C.

Experiment [23] has the same target. The experiment can be described thus: KinExA, solution phase. How it is done: Due to technical limitations, the lowest concentration of Adnectins that could be tested was 1 nM.
(A kinetic exclusion assay measures how much of one partner remains free in solution.)

Experiment [24] has the same target. The experiment can be described thus: BLI, biotinylated hPCSK9 on sensor tips.
The target in experiment [25] is T2, human serum albumin. The experiment can be described thus: SPR (Biacore), albumin captured on chip, SABA in flow; n = 6. How it is done: as §1
Experiment [26] deals with T2, human serum albumin. The experiment can be described thus: SPR (Biacore), albumin captured on chip, SABA in flow; n = 4. How it is done:
as §1

The target of experiment [27] is T6, murine serum albumin (mouse, UniProt P07724 25-608).
T6 construct: also called MuSA; mouse serum albumin
The experiment can be described thus: kinetic analysis and direct binding ELISA (Table 18, FIG. 27).

The target in experiment [28] is rat serum albumin (rat, UniProt P02770 25-608). Described as above.
Experiment [29] has as its target T7, human serum albumin (human, UniProt P02768 25-609).
T7 construct: also called HSA
The experiment can be described thus: kinetic analysis, HBS-P buffer.

Experiment [30] has as its target T8, rhesus serum albumin (rhesus, UniProt Q28522 17-600).
T8 construct: also called RhSA
The experiment can be described thus: kinetic analysis, HBS-P buffer.

Where a chain is given by its changes, count along the chain named. Several values for one entry are separate records, joined by “and”; a condition that tells them apart may be missing. Equal entries are not always repeated. Where two headings read alike, the source gives them in different places.

B1: SABA1.1 (designed binder)
chain: MGVSDVPRDLEVVAATPTSLLISWHSYYEQNSYYRITYGETGGNSPVQEFTVPYSQTTATISGLKPGVDYTITVYAVYGSKYYYPISINYRTEIDKPSQHHHHHH
notes: also called clone 1318H04
As to B1, the Kd in experiment [1] worked out at 778 nM; in experiment [2], 47.2 nM. Moreover, the values for the koff in experiment [3] and in experiment [4] were 0.00545 s⁻¹ and 0.000457 s⁻¹, respectively.

B2: 1459D05 (designed binder)
chain: MGVSDVPRDLEVVAATPTSLLISWPPPSHGYGYYRITYGETGGNSPVQEFTVPPGKGTATISGLKPGVDYTITVYAVEYPYKHSGYYHRPISINYRTEIDKPSQHHHHHH
notes: also called ATI000891; ATI-891
For the molecule B2, the “LDLR Depletion (% inhibition at 75 nM)” value in experiment [5] came to 66.8%. In addition, the “LDLR Depletion EC50” value in experiment [5] was more than 200 nM. Further, the Kd stood at 14.4 nM in [6], 1.6 nM in experiment [8], 1.58 nM in experiment [10] and 26 nM in [11]. The “DiI-LDL uptake in HepG2 cells, EC50” value in experiment [7] was determined as 190 nM. In experiment [7], the “percentage of PCSK9 inhibition at 75 nM” value was 66.8%. Also, a half-maximal effect in [9] (EC50) was put at 4 nM.

B3: 2012A04 (designed binder)
chain: B2 chain with P25R, H29N, Y31H, P54V, G55N, K56E, Y79F, Y81F, H83W
notes: Anti-PCSK9 Adnectin, His6-tagged
For the molecule B3, the EC50 was determined as 1.4 nM in experiment [12], 70.3 nM in [13] and 2.1 nM in experiment [14]. Moreover, the results for the IC50 in experiment [14] and in experiment [20] were 2.1 nM and 1.2 nM, respectively. For the same molecule, in experiment [15], the “LDLR Depletion EC50” value was determined as 12 nM. The Kd is 24.3 nM in [16], 0.251 nM in experiment [17], 24.3 nM in experiment [18] and 0.25 nM in experiment [19]. In addition, the dissociation rate constant (koff) in experiment [16] came to 0.00475 s⁻¹; in experiment [17], 6.47e-05 s⁻¹. In addition, the on-rate constant (kon) in experiment [16] amounted to 195000 M⁻¹ s⁻¹; in [17] it was 259000 M⁻¹ s⁻¹.

B4: 2013E01 (designed binder)
chain: B2 chain with P25V, H29D, G30D, P54I, Y79F, Y81W, K82P, S84A
notes: Anti-PCSK9 Adnectin, His6-tagged, unmodified (not PEGylated); also called ATI001081
B4: the EC50 in experiment [12] is 0.9 nM; in experiment [13] it was 12.5 nM; in [14] it was 1.6 nM. In addition, the Kd in experiment [21] came to 6.7 nM; in experiment [16], 8.1 nM; in [22], 1.4 nM; in [23], 0.0695 nM; in [18], 8.1 nM; in experiment [19], 0.29 nM. Further, the koff is 0.000245 s⁻¹ in [21]; 0.00177 s⁻¹ in experiment [16]; 0.000837 s⁻¹ and 0.000349 s⁻¹ in experiment [24]. The on-rate (kon) in experiment [21] is 36500 M⁻¹ s⁻¹; in [16], 219000 M⁻¹ s⁻¹; in [24], 546000 M⁻¹ s⁻¹ and 829000 M⁻¹ s⁻¹. Besides, the 50% inhibitory concentration (IC50) was found to be 1.6 nM in [14] and 1.8 nM in experiment [20]. The “LDLR Depletion EC50” value in [15] stood at 10 nM. This molecule displayed a Ka in experiment [22] of 7.1e+08 M⁻¹. Further, in experiment [22], the “Stoichiometry (N)” value came to 0.926. This molecule also showed a ΔH in [22] of -26.6 kcal/mol. Further, in experiment [22], the ΔS is -45.4 cal/mol °C.

B5: SABA2.1 (designed binder)
chain: MGVSDVPRDLEVVAATPTSLLISWPKYDKTGHYYRITYGETGGNSPVQEFTVPTRQTTATISGLKPGVDYTITVYAVSKDDYYPHEHRPISINYRTEIDKPSQHHHHHH
On to B5, for which the dissociation constant Kd in experiment [25] worked out at 33.8 nM; in [3], 63.6 nM. The koff in experiment [3] is 0.000442 s⁻¹; in experiment [4], 0.000171 s⁻¹.

B6: SABA4.1 (designed binder)
chain: MGVSDVPRDLEMVAATPTSLLISWEDDSYYSRYYRITYGETGGNSPVQEFTVPSDLYTATISGLKPGVDYTITVYAVTYDVTDLIMHEPISINYRTEIDKPSQHHHHHH
notes: Carries a scaffold mutation; SABA5 is the scaffold-perfect version
As for B6, the dissociation constant (Kd) in [26] was 412 nM; in [3], more than 1000 nM. In addition, the koff came out at 0.00383 s⁻¹ in experiment [3] and 0.000782 s⁻¹ in [4].

B7: SABA1.2 (designed binder)
chain: MGVSDVPRDLEVVAATPTSLLISWHSYYEQNSYYRITYGETGGNSPVQEFTVPYSQTTATISGLKPGVDYTITVYAVYGSKYYYPISINYRTEIEDEDEDEDED
notes: core 1 10Fn3 with (ED)5 extension
With B7, the binding result in experiment [27] and in experiment [28] was “no binding (tested: up to 1 µM)” each time. For the same molecule, the “fold increase in affinity at 37 C against 25 C” value in experiment [29] is approximately 2 fold. In addition, in experiment [30], the “affinity at 37 C relative to 25 C” value came to 0.5 fold.

In general, Kd refers to a measure of binding affinity in units of concentration. A word on the koff: it is the rate constant with which the complex falls apart. Usually EC50 stands for the midpoint of the concentration-response curve. The IC50 is the midpoint of a concentration-inhibition curve. Usually kon stands for a measure of how fast the partners come together.
